Results taken from paper doi:10.1101/2024.07.16.603692.

Target: CBP-UPF1-CH-HD (aa 115-914) (human) (UniProt Q92900)
Test: MST

UPF2(770-1204) (from UniProt Q9HAU5 770-1204) (domain or fragment)
Kd: 10 nM
